This test has as its target G-CSF receptor (UniProt Q99062 25-836). Briefly: SPR; BIAcore T200; G-CSF receptor immobilised on a CM5 chip at 2000 RU by amine coupling; pegfilgrastim injected at seven concentrations from 0.08 to 5 nM; 1:1 binding model; KD from kinetics; triplicates for each batch. The conditions noted are these: both partners purified.

G-CSF receptor, sequence (Q99062 25-836): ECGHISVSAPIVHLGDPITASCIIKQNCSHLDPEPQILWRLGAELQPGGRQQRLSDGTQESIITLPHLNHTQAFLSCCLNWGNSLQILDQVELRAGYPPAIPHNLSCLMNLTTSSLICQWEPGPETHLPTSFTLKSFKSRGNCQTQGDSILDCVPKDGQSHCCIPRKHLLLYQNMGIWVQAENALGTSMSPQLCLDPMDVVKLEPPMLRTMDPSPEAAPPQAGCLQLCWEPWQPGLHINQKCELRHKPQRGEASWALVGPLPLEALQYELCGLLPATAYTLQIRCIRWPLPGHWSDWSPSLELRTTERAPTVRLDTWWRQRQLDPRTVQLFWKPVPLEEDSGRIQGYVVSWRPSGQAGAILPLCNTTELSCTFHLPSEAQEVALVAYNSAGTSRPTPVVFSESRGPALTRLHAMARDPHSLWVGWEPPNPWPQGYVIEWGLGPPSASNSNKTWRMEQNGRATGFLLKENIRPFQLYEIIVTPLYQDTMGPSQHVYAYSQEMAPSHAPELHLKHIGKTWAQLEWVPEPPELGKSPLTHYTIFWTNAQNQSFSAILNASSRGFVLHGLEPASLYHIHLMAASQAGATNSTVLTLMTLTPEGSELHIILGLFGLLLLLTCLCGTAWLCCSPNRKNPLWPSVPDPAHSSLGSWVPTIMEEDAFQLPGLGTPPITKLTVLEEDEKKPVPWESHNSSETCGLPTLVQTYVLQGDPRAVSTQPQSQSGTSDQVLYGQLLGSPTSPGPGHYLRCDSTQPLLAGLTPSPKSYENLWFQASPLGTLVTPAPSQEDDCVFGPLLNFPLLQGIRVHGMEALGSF

B1: Armlupeg (Lupin’s Pegfilgrastim) (ligand, human)
chain: MTPLGPASSLPQSFLLKCLEQVRKIQGDGAALQEKLCATYKLCHPEELVLLGHSLGIPWAPLSSCPSQALQLAGCLSQLHSGLFLYQGLLQALEGISPELGPTLDTLQLDVADFATTIWQQMEELGMAPALQPTQGAMPAFASAFQRRAGGVLVASHLQSFLEVSYRVLRHLAQP
modifications: 20 kDa monomethoxy polyethylene glycol (PEG) covalently bound to the N-terminal methionine residue
notes: N-terminal methionine residue of filgrastim, named in words; it carries the PEG; Filgrastim: recombinant human granulocyte colony-stimulating factor (G-CSF), 175 amino acids with the N-terminal methionine; 18 lots were used for SPR; also called proposed biosimilar; source: Armlupeg drug product lots (Lupin Limited)
Broadly, the Kd is the equilibrium constant for the complex coming apart. A higher Kd goes with weaker binding. B1: the Kd lay within 0.0512 to 0.118 nM.

The record behind these values is article PMC10411777, “Analytical sameness methodology for the evaluation of structural, physicochemical, and biological characteristics of Armlupeg: A pegfilgrastim biosimilar case study” (PLOS ONE, 2023).
